Here are results for one molecule from patent publication US20130130985A1.

Holding throughout (test): cell-based or functional assay
The target in test [1] is T1, human vasopressin V1b receptor (human), P47901.
T1 chain: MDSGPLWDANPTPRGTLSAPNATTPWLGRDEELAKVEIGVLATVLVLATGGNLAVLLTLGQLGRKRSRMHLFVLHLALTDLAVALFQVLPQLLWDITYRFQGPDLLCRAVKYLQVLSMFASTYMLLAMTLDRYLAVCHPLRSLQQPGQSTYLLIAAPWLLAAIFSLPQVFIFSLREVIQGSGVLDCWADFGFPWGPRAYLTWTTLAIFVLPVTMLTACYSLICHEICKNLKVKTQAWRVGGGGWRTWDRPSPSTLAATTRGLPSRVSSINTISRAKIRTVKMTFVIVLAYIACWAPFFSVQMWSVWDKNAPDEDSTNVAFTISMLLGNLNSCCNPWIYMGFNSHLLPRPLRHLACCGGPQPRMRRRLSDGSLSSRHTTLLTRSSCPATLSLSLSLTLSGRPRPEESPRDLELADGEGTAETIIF

Test [2] concerns the target human vasopressin V1a receptor (human), P37288.
The target in test [3] is human vasopressin V2 receptor (human), P30518.
Test [4] concerns the target T2, human oxytocin receptor (human), P30559.
T2 chain: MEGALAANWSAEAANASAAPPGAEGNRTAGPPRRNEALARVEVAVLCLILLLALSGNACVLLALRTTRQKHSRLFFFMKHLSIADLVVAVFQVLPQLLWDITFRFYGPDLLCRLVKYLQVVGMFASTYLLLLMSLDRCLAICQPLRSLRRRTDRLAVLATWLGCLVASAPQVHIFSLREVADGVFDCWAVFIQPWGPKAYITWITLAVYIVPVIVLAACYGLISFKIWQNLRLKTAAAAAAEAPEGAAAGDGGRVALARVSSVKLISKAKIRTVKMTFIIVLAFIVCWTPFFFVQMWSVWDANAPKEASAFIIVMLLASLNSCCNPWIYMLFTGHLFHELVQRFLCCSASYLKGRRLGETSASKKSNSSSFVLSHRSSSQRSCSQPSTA

human vasopressin V1a receptor (human), P37288, sequence (P37288 whole entry): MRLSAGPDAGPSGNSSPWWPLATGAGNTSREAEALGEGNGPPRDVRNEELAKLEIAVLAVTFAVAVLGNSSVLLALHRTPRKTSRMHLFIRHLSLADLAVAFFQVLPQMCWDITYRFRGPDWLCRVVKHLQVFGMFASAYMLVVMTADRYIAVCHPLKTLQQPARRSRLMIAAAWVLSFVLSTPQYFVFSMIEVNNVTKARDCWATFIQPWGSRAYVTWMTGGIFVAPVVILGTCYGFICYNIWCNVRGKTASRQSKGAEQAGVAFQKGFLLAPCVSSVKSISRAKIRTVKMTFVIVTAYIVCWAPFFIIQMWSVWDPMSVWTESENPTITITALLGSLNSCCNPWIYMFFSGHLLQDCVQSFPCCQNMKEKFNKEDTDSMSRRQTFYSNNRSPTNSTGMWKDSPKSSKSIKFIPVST

With UYIQNUPLG (not fully specified; modifications not checked) [d[C1,6U]-OT], the Emax, FLIPR calcium assay is 92% in test [1], 100% in test [2] and 89% in test [4]. Also, the Emax, IP-One HTRF assay in test [1] was found to be 96%; in test [4], 72%. Moreover, the Emax, cAMP accumulation assay in test [3] is 134%. This molecule also showed an EC50, IP-One HTRF assay in test [4] of 400 nM.
